B1: CSN5^ΔC,WT (human CSN5 1–257 fragment) (domain or fragment)
chain: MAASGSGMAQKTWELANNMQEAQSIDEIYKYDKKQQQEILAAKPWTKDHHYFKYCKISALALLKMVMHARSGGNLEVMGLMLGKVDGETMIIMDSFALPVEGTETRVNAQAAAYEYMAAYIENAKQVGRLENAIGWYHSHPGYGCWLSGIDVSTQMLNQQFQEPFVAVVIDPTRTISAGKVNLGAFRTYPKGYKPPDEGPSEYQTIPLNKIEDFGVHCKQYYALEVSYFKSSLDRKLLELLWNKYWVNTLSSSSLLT
B2: CSN6^ΔC (human CSN6 31–211 fragment) (domain or fragment)
chain: MACGVTGSVSVALHPLVILNISDHWIRMRSQEGRPVQVIGALIGKQEGRNIEVMNSFELLSHTVEEKIIIDKEYYYTKEEQFKQVFKELEFLGWYTTGGPPDPSDIHVHKQVCEIIESPLFLKLNPMTKHTDLPVSVFESVIDIINGEATMLFAELTYTLATEEAERIGVDHVARMTATGS

Experiments:
Assay in all cases: ITC
[1] = biological target: CSN6^ΔC,V115E (human, UniProt Q7L5N1 31-211, V115E)
[2] = biological target: CSN6^ΔC,H44A (human, UniProt Q7L5N1 31-211, H44A)
[3] = biological target: CSN5^ΔC,R106T (human, UniProt Q92905 1-257, R106T)
Sequence of CSN5^ΔC,R106T (Q92905 1-257 R106T): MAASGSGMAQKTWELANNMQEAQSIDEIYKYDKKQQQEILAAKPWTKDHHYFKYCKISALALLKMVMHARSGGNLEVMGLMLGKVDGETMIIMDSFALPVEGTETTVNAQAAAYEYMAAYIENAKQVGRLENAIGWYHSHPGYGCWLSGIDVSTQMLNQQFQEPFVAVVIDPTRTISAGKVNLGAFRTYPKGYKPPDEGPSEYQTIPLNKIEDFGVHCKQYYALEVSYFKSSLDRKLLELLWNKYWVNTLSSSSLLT

Binder | Kd [1] [µM] | Kd [2] [µM] | Kd [3] [µM]
B1 | 29 | 9.2 | –
B2 | – | – | 5.8
